Source: patent US20210162011A1

Molecular target: leptin receptor (LepRb), expressed on transfected HEK293 cells
Assay: cell-based or functional assay

| Substance | cells with a p-STAT3 positive nucleus, immunofluorescence | cells with a p-STAT3 positive nucleus after leptin, immunofluorescence |
| --- | --- | --- |
| leptin (ligand) | > 80% |  |
| recombinant human Batotin protein with a six-amino-acid His tag at its C-terminus (from UniProt Q96GX8 1-76) (ligand) |  | < 10% |
| recombinant mouse Batotin protein (76 aa) with a six-amino-acid His tag at its C-terminus (from UniProt Q8K1L6 1-76) (ligand) |  | < 10% |
